Measurements taken from patent publication US20250215083A1 (JIANGSU HENGRUI PHARMACEUTICALS, published 2025).
Positions count from the first letter of the chain named.

B1: F2-3 (bispecific antibody)
heavy 1: not shown
light 1: DIQMTQSPSSVSASVGDRVTITCKASQNVGSNVAWYQQKPGKAPKALIYSASYRYSGVPSRFSGSGSGTDFTLTISSLQPEDFATYYCHQYNSYPPTFGQGTKLEIKRTVAAPSVFIFPPSDEQLKSGTASVVCLLNNFYPREAKVQWKVDNALQSGNSQESVTEQDSKDSTYSLSSTLTLSKADYEKHKVYACEVTHQGLSSPVTKSFNRGEC
heavy 2: not shown
light 2: not shown
B2: F4-7 (bispecific antibody)
heavy 1: not shown
light 1: not shown
heavy 2: EVQLVQSGAEVKKPGASVKVSCKASGYSFTGYTMNWVRQAPGKRPEWMGLINPYTGGTRNNQKFKDRVTLTVDKSASTAYMELSSLRSEDTAVYYCTRWGLRLAMDYWGQGTTVTVSSASTKGPSVFPLAPSSKSTSGGTAALGCLVKDYFPEPVTVSWNSGALTSGVHTFPAVLQSSGLYSLSSVVTVPSSSLGTQTYICNVNHKPSNTKVDKKVEPKSCDKTHTCPPCPAPEAAGGPSVFLFPPKPKDTLMISRTPEVTCVVVDVSHEDPEVKFNWYVDGVEVHNAKTKPREEQYNSTYRVVSVLTVLHQDWLNGKEYKCKVSNKALPAPIEKTISKAKGQPREPQVCTLPPSRDELTKNQVSLSCAVKGFYPSDIAVEWESNGQPENNYKTTPPVLDSDGSFFLVSKLTVDKSRWQQGNVFSCSVMHEALHNHYTQKSLSLSPGK
light 2: B1 light 1
B3: F2-2 (bispecific antibody)
heavy 1: not shown
light 1: DVVLTQSPLSLPVTLGQPASISCKSSQSLLHSSGKTYLNWLLQRPGQSPRRLIYLVSKLDSGVPDRFSGSGSGTDFTLKISRVEAEDVGVYYCAQGTHFPRTFGGGTKVEIKRTVAAPSVFIFPPSDEQLKSGTASVVCLLNNFYPREAKVQWKVDNALQSGNSQESVTEQDSKDSTYSLSSTLTLSKADYEKHKVYACEVTHQGLSSPVTKSFNRGEC
heavy 2: not shown
light 2: not shown
B4: PL-4 (bispecific antibody)
chain 1: not shown
chain 2: DIVLTQSPASLAVSPGQRATITCRASESVSIHGTHLMHWYQQKPGQPPKLLIYAASKLESGVPARFSGSGSGTDFTLTINPVEAEDTANYYCQQSFEDPLTFGQGTKLEIKGGGGSGIPPKIECLPIDISIDEGKVLTVASCFTGEPTPEVTWSTGGRKIHSQEQGRFHIENTDDSTTLTIKDVQKQDGGLYTLTLRNEFGSDSATVNIHIRSI
chain 3: not shown
chain 4: not shown
B5: PL-12 (bispecific antibody)
chain 1: not shown
chain 2: B4 chain 2 with G112R, G113T, G114V, G115A, V136C, C142A
chain 3: not shown
chain 4: not shown
B6: PL-18 (bispecific antibody)
chain 1: not shown
chain 2: B4 chain 2 with G112R, G113T, G114V, G115A, V136C, C142A
chain 3: not shown
chain 4: not shown
B7: PL-15 (bispecific antibody)
chain 1: not shown
chain 2: B4 chain 2 with G112R, G113T, G114V, G115A, V136C, C142A
chain 3: not shown
chain 4: not shown
B8: PL-13 (bispecific antibody)
chain 1: not shown
chain 2: B4 chain 2 with G112R, G113T, G114V, G115A
chain 3: not shown
chain 4: not shown
B9: PL-9 (bispecific antibody)
chain 1: not shown
chain 2: B4 chain 2 with V136C, C142A
chain 3: not shown
chain 4: not shown
B10: PL-14 (bispecific antibody)
chain 1: not shown
chain 2: B4 chain 2 with G112R, G113T, G114V, G115A, C142A
chain 3: not shown
chain 4: not shown
B11: PL-8 (bispecific antibody)
chain 1: not shown
chain 2: B4 chain 2 with C142A
chain 3: not shown
chain 4: not shown
B12: PL-6 (bispecific antibody)
chain 1: not shown
chain 2: B4 chain 2 with V136C, C142A
chain 3: not shown
chain 4: not shown
B13: PL-17 (bispecific antibody)
chain 1: not shown
chain 2: B4 chain 2 with G112R, G113T, G114V, G115A, C142A
chain 3: not shown
chain 4: not shown
B14: PL-7 (bispecific antibody)
chain 1: not shown
chain 2: B4 chain 2
chain 3: not shown
chain 4: not shown
B15: PL-10 (bispecific antibody)
chain 1: not shown
chain 2: B4 chain 2
chain 3: not shown
chain 4: not shown
B16: PL-11 (bispecific antibody)
chain 1: not shown
chain 2: B4 chain 2 with G112R, G113T, G114V, G115A, C142A
chain 3: not shown
chain 4: not shown
B17: PL-5 (bispecific antibody)
chain 1: not shown
chain 2: B4 chain 2 with C142A
chain 3: not shown
chain 4: not shown
B18: PL-19 (bispecific antibody)
chain 1: not shown
chain 2: B4 chain 2 with G112R, G113T, G114V, G115A
chain 3: not shown
chain 4: not shown
B19: HJ-3 (bispecific antibody)
chain 1: not shown
chain 2: DIQMTQSPSSVSASVGDRVTITCRASQDIANYLSWYQQKPGKSPKLLIYGTSNLEVGVPSRFSGSRSGTDFTLTISSLQPEDFATYYCLQDKEFPRTFGGGTKVEIKGGGGSSGAPRFLTRPLAFVVSVGKDATLSSQIVGNPTPQVSWEKDKQPVTAGARFRLAQDGDLYRLKILDLQLSDSGQYVSRARNAIGEAFACLGLQVDAEA
chain 3: EVQLVQSGAEVKKPGSSVKVSCKASGYTFSNYLIEWVRQAPGQGLEWIGVIDPGVGDTNYNENFKGRATLTADKSTSTAYIELSSLRSEDTAVYYCAREDNTGTAFDYWGQGTTVTVSSASTKGPSVFPLAPSSKSTSGGTAALGCLVKDYFPEPVTVSWNSGALTSGVHTFPAVLQSSGLYSLSSVVTVPSSSLGTQTYICNVNHKPSNTKVDKKVEPKSCDKTHTCPPCPAPEAAGGPSVFLFPPKPKDTLMISRTPEVTCVVVDVSHEDPEVKFNWYVDGVEVHNAKTKPREEQYNSTYRVVSVLTVLHQDWLNGKEYKCKVSNKALPAPIEKTISKAKGQPREPQVCTLPPSREEMTKNQVSLSCAVKGFYPSDIAVEWESNGQPENNYKTTPPVLDSDGSFFLVSKLTVDKSRWQQGNVFSCSVMHEALHNHYTQKSLSLSPGKDYKDDDDK
chain 4: SIVMTQTPLSLSVTPGQPASISCKASQSVSSDVTWYLQKPGQSPQLLIYYVSEHYTGVPDRFSGSGYGTDFTLKISRVEAEDVGVYYCQQHHRFPLTFGQGTKLEIKRTVAAPSVFIFPPSDEQLKSGTASVVCLLNNFYPREAKVQWKVDNALQSGNSQESVTEQDSKDSTYSLSSTLTLSKADYEKHKVYACEVTHQGLSSPVTKSFNRGEC
B20: HJ-5 (bispecific antibody)
chain 1: not shown
chain 2: B19 chain 2 with L123K, F125S, T144F, A160V, I194H
chain 3: EVQLVQSGAEVKKPGSSVKVSCKASGYTFSNYLIEWVRQAPGQGLEWIGVIDPGVGDTNYNENFKGRATLTADKSTSTAYIELSSLRSEDTAVYYCAREDNTGTAFDYWGQGTTVTVSSASTKGPSVFPLAPSSKSTSGGTAALGCLVKDYFPEPVTVSWNSGALTSGVHTFPAVLQSSGLYSLSSVVTVPSSSLGTQTYICNVNHKPSNTKVDKKVEPKSCDKTHTCPPCPAPEAAGGPSVFLFPPKPKDTLMISRTPEVTCVVVDVSHEDPEVKFNWYVDGVEVHNAKTKPREEQYNSTYRVVSVLTVLHQDWLNGKEYKCKVSNKALPAPIEKTISKAKGQPREPQVCTLPPSREEMTKNQVSLSCAVKGFYPSDIAVEWESNGQPENNYKTTPPVLDSDGSFFLVSKLTVDKSRWQQGNVFSCSVMHEALHNHYTQKSLSLSPGK
chain 4: B19 chain 4
B21: HJ-8 (bispecific antibody)
chain 1: not shown
chain 2: B19 chain 2 with G108R, G109T, G110V, G111A, L123K, F125S, T144F, A160V, I194H
chain 3: B20 chain 3
chain 4: B19 chain 4
B22: HJ-11 (bispecific antibody)
chain 1: not shown
chain 2: DIQMTQSPSSVSASVGDRVTITCRASQDIANYLSWYQQKPGKSPKLLIYGTSNLEVGVPSRFSGSRSGTDFTLTISSLQPEDFATYYCLQDKEFPRTFGGGTKVEIKRTVASSGCPRFLTRPKASVVSVGKDATLSCQIVGNPFPQVSWEKDKQPVTAGVRFRLAQDGDLYRLKILDLQLSDSGQYVCRARNAHGEAFACLGLQVDAEA
chain 3: B20 chain 3
chain 4: B19 chain 4
B23: HJ-10 (bispecific antibody)
chain 1: not shown
chain 2: B22 chain 2 with C115A
chain 3: B20 chain 3
chain 4: B19 chain 4
B24: HJ-7 (bispecific antibody)
chain 1: not shown
chain 2: B22 chain 2 with R108G, T109G, V110G, A111G, C115A
chain 3: B20 chain 3
chain 4: B19 chain 4
B25: HJ-9 (bispecific antibody)
chain 1: not shown
chain 2: B22 chain 2 with C115A, R121C, C137S, C188S
chain 3: B20 chain 3
chain 4: B19 chain 4
B26: HJ-6 (bispecific antibody)
chain 1: not shown
chain 2: B19 chain 2 with R121C, L123K, F125S, T144F, A160V, I194H
chain 3: B20 chain 3
chain 4: B19 chain 4

biological target: human GPRC5D (human, UniProt Q9NZD1 1-345); assay: cell-based or functional assay
Sequence (Q9NZD1 whole entry): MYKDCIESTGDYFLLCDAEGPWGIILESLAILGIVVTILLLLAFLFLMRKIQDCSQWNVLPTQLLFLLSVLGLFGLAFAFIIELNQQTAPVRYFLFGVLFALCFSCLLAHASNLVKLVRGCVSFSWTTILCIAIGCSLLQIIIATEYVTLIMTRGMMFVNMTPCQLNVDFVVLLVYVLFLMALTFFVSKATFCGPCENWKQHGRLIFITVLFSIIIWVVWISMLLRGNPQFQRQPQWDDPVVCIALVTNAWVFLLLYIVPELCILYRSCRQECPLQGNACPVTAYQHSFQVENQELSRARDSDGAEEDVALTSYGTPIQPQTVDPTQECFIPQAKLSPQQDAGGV

Binder | EC50 ratio (relative to JNJ-64407564), cytotoxic activity against NCI-H929 | Lysis rate %, cytotoxic activity against NCI-H929 [%]
B1 | 0.08 | 61.5
B2 | 0.16 | 68.3
B3 | 0.26 | 64.3

biological target: T1, hPDL1 (human, UniProt Q9NZQ7 19-238); assay: ELISA per WO2021139758 Test Example 4
T1 construct: purchased from Sino biology
T1 sequence (Q9NZQ7 19-238 limits assumed): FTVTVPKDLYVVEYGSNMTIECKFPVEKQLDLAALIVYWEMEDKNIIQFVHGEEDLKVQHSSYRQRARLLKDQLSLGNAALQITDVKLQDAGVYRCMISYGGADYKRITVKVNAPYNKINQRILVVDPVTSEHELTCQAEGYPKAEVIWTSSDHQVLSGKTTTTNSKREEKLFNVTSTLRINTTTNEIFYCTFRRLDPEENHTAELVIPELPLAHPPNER

EC50 [nM] | Binder
0.7 | B4
0.5 | B5
1.6 | B6
1.4 | B7
0.5 | B8
0.6 | B9
1.3 | B10
1.4 | B11
0.8 | B12
1.4 | B13
0.5 | B14
0.6 | B15
0.6 | B16
0.7 | B17
1.6 | B18

biological target: T2, hCTLA4 (human, UniProt P16410 36-161); assay: ELISA per WO2021139758 Test Example 4
T2 construct: purchased from Sino biology
T2 sequence (P16410 36-161 limits assumed): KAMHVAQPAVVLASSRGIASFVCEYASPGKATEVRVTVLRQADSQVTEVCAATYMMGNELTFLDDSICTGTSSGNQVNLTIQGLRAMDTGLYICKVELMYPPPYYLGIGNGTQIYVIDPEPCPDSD

EC50 [nM] | Binder
6.5 | B4
8 | B5
6.7 | B6
3.2 | B7
4.4 | B8
5.5 | B9
6 | B10
14.5 | B11
5.3 | B12
6.2 | B13
7.3 | B14
6.9 | B15
5.6 | B16
6.7 | B17
6.5 | B18

biological target: hIL5 (human, UniProt P05113 20-134); assay: ELISA per WO2021139758 Test Example 4

EC50 [nM] | Binder
17.4 | B19
16 | B20
18.7 | B21
9.46 | B22
20.8 | B23
17.7 | B24
10.9 | B25
37 | B26

biological target: hTSLP (human, UniProt Q969D9 29-159); assay: ELISA per WO2021139758 Test Example 4

EC50 [nM] | Binder
3.23 | B19
2.64 | B20
3.33 | B21
3 | B22
3.17 | B23
2.18 | B24
3.18 | B25
2.88 | B26
